Reference: paper PMC3531487, “An Allele of an Ancestral Transcription Factor Dependent on a Horizontally Acquired Gene Product” (PLoS Genetics, 2012)

Biological target: the molecule itself
Experiment: SEC; analytical gel filtration; PmrA (50 µM) phosphorylated with pGEX-PmrBc T156R beads, 100 µl applied individually to Superdex 200 10/300 GL at 4°C in 1× TBS/1 mM MgCl2/1 mM DTT/10% glycerol, 0.5 ml/min, A280; monomer to dimer

Protein | Dimer: Monomer (ratio of peak heights, A280) | stoichiometry N
phosphorylated PmrA (G211) protein from S. enterica serovar Typhimurium (natural protein, phosphorylated (PmrA-P; phospho-Asp, residue number not given), PmrA, response regulator of the PmrA/PmrB two-component system, S. enterica serovar Typhimurium 14028s; glycine at position 211; In gel filtration a mixture of monomer and dimer; probably the whole 222-residue protein; also called PmrA-P; PmrA-H6) MKILIVEDDTLLLQGLILAAQTEGYACDGVSTARAAEHSLESGHYSLMVLDLGLPDEDGLHFLTRIRQKKYTLPVLILTARDTLNDRITGLDVGADDYLVKPFALEELHARIRALLRRHNNQGESELTVGNLTLNIGRHQAWRDGQELTLTPKEYALLSRLMLKAGSPVHREILYNDIYNWDNEPSTNTLEVHIHNLRDKVGKSRIRTVRGFGYMLVATEES | 0.29 | 2
phosphorylated PmrA (E211) protein from S. enterica serovar Paratyphi B (natural protein, phosphorylated (PmrA-P; phospho-Asp, residue number not given), PmrA, response regulator of the PmrA/PmrB two-component system, natural allele of S. enterica serovar Paratyphi B (SPV) SARA46; differs from the S. typhimurium PmrA by a single amino acid, glutamate instead of glycine at position 211; also called PmrA-H6) MKILIVEDDTLLLQGLILAAQTEGYACDGVSTARAAEHSLESGHYSLMVLDLGLPDEDGLHFLTRIRQKKYTLPVLILTARDTLNDRITGLDVGADDYLVKPFALEELHARIRALLRRHNNQGESELTVGNLTLNIGRHQAWRDGQELTLTPKEYALLSRLMLKAGSPVHREILYNDIYNWDNEPSTNTLEVHIHNLRDKVGKSRIRTVREFGYMLVATEES | 0.11 | 2
